Experimental findings from doi:10.1101/2023.07.03.547485 (bioRxiv, 2023) are described below.

In this test the target is T1, 6His-msfGFP-TEV-Mis18FL (S. pombe, UniProt Q9P802 1-194).
T1 sequence (looked up): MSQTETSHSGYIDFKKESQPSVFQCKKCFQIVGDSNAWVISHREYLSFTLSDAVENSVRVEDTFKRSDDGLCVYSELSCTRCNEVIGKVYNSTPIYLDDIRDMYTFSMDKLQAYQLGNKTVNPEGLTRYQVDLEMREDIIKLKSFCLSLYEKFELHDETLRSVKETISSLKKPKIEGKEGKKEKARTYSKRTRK
Kind of test: pull-down.

B1: 6His-MBP-Sad1(2-167) (domain or fragment, S. pombe, UniProt Q09825 2-167, looked up)
chain: FTNTPVGGKRERQNGAHPAWSTLGANSAQIHQNTADLASKMHKLRYTKIRSPPTRVSIESITPKQRFPAPNFEQAYHSNIRYEQEESDNEEFENVVKNGHEASTNVFYESDGDDEEFVNEEYENSIDEESDDEGYSLNEDTTATNASFRYPMNQRSTRKSQFYSSK
B1: the binding result was “binds”.
